Reference: patent publication US7101975B1, “Method and composition for inhibition of angiogenesis using antagonists based on MMP-9 and β1 integrins” (University of Southern California, priority 1999, dated 2006)
“Also recorded” adds a separate entry of the source. Where no end group is shown, it is not given here.

Tests used:
MMP-9 = MMP-9 (Homo sapiens, UniProt P14780); test: Solid phase binding assay of synthetic peptides to MMP-9; details: solid phase binding assays, FIG. 7
Description: For example, synthetic peptides were generated and analyzed for binding activity to MMP-9. The binding ability of the peptides was analyzed by solid phase binding assays.

[1] = tested on: angiogenesis on the CAMs of chick embryos; test: Chick embryo CAM angiogenesis assay (bFGF-induced); format: in vivo; details: 10 day old chick embryos, single IV injection 100 μg 24 h later, counted three days later, FIG. 8B
Text: For example, one assay measures angiogenesis in the chick chorioallantoic membrane (CAM) and is referred to as the CAM assay. The CAM assay has been described in detail by others, and further has been used to measure both angiogenesis and neovascularization of tumor tissues. See Ausprunk et al., Am. J. Pathol., 79:597-618 (1975) and Ossonski et al., Cancer Res., 40:2300-2309 (1980).
Angiogenesis was induced on the CAMs of 10 day old chick embryos with bFGF. Twenty-four hours later the embryos received a single IV injection with 100 μg of FRIP-1 or AAA control peptide. Three days later angiogenesis was quantified by counting the number of blood vessel branch points within the area of the filter disc. […] FIG. 8B is a quantification of the angiogenesis experiments. […] In FIG. 8B, NT corresponds to No bFGF, FRIP-1 to bFGF+FRIP-1 peptide, and AAA to bFGF+control AAA peptide. Data bars represent the mean±standard errors of 5 to 10 embryos per condition.

Chain of MMP-9 (P14780 94-707): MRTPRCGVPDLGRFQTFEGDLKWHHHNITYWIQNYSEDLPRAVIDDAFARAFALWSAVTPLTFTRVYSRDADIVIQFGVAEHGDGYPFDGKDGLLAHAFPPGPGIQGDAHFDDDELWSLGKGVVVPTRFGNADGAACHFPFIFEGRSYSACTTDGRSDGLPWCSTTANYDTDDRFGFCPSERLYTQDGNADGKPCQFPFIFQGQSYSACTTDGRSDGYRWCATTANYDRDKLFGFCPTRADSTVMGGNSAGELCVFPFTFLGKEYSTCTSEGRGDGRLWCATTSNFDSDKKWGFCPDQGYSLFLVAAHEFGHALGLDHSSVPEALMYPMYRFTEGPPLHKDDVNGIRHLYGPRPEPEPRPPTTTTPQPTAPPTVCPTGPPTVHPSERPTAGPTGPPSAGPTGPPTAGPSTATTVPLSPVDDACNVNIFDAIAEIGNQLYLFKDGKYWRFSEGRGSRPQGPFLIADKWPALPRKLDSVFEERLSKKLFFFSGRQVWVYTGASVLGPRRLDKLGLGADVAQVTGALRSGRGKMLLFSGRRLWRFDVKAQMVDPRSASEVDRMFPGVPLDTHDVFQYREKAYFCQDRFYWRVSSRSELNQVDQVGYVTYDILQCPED

Sequence	binding to MMP-9 (MMP-9)	angiogenesis (number of blood vessel branch points within the area of the filter disc) [1]
CRAAAAEPQC (cysteine pairing not given here) [control peptide, reference compound]	binds with substantially reduced affinity	
CRLRSGEPQC (cysteine pairing not given here) [synthetic peptide derived from the C-terminal hemopexin-like domain of human MMP-9]	specifically bind to MMP-9; also recorded: binds to MMP-9	blocks angiogenesis; also recorded: inhibit angiogenesis
CRAAAGEPQC (cysteine pairing not given here) [control peptide identical to FRIP-1 except that 3 key amino acids were changed, reference compound]	little in any binding ability	
